Results published in PMC7015683.

Target: insulin-like growth factor 2 receptor (IGF2R), native full-length, from bovine liver (bovine) (UniProt P08169)
Assay: pull-down

Chain of UniProt P08169 (P08169 45-2499): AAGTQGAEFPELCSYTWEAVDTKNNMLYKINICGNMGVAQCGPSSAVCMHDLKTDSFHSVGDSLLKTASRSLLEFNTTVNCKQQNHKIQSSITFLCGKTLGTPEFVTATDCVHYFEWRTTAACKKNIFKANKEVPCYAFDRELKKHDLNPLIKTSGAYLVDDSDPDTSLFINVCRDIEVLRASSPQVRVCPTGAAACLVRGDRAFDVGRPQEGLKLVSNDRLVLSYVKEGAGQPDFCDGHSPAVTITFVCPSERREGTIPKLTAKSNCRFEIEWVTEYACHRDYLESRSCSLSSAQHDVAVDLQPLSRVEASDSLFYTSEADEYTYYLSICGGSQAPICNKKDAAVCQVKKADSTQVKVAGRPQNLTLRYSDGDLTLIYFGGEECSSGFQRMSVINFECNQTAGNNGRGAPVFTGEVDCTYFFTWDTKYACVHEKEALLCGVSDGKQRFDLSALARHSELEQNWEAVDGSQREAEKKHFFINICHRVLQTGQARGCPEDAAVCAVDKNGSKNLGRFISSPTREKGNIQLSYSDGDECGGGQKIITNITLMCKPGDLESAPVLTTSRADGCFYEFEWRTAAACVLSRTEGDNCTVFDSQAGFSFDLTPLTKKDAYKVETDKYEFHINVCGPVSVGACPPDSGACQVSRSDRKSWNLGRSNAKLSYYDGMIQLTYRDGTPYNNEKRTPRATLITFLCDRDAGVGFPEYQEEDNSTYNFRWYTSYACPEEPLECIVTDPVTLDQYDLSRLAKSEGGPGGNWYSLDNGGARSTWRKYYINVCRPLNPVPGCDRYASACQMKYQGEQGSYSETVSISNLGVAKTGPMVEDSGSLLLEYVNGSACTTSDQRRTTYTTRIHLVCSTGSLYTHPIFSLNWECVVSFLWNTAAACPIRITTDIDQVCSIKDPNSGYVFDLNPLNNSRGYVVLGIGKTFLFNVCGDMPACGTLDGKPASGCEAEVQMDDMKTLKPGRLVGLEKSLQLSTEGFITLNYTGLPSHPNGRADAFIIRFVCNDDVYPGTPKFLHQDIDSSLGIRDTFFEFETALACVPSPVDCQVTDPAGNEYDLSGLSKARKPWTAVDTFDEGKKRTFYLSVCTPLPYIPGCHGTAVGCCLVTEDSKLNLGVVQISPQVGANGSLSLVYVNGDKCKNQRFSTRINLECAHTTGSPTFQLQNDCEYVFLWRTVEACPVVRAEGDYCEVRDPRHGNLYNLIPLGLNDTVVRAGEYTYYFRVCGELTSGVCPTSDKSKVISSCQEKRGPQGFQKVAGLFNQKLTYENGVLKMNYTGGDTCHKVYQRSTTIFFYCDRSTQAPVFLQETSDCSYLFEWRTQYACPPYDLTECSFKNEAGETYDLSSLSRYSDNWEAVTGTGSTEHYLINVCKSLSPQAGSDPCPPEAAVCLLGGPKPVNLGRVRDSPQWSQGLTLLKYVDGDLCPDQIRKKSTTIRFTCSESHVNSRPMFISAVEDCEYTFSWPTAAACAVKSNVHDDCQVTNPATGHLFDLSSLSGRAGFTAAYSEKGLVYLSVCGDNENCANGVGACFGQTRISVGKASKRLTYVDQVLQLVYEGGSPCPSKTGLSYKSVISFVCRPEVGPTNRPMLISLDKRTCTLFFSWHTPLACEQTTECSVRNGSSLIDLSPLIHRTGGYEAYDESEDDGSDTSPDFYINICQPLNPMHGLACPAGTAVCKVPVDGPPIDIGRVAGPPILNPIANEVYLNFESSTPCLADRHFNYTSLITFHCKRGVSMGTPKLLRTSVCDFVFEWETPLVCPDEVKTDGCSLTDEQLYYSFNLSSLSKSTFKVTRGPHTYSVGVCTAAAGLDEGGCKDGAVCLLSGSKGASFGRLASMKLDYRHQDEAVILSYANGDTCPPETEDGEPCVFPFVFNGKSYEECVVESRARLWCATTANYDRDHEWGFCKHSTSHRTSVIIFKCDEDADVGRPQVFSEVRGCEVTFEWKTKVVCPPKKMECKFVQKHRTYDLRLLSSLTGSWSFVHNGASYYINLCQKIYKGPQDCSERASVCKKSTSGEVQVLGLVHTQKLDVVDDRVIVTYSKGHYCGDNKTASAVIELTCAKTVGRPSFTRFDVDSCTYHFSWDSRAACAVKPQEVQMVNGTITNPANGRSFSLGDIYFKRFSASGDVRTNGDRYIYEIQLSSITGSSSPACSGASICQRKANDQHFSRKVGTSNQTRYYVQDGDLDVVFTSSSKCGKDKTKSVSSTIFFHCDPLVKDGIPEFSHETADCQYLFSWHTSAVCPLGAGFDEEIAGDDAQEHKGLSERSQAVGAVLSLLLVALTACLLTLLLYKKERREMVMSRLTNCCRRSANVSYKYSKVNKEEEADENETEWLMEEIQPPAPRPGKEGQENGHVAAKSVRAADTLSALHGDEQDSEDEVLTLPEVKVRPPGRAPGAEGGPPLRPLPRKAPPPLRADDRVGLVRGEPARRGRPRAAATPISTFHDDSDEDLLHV

Row | Substance | percent reduction of binding against WT IGF2
1 | Flag-IGF2 L53D mutant (ligand) | > 60%
2 | Flag-IGF2 F28A V43D double mutant (ligand) | 20 to 30%
3 | Flag-IGF2 F48D mutant (ligand) | 20 to 30%
